The values below come from paper PMC11914300, “Immediate early splicing controls translation in activated T-cells and is mediated by hnRNPC2 phosphorylation”.

Common to all, as to settings: protein: recombinant; tags: N-terminal Twin-Strep-SUMO, removed with PreScission protease; chain copies: 4; label: 5' 32P
One data set addresses hnRNPC2 S115D (UniProt P07910 1-306, S115D). The data set can be described thus: EMSA; 0-2000 nM protein, 10 pmol RNA; no difference from WT; EMSA: 20 mM Tris-HCl pH 8.0, 0.25 M NaCl, 1 mM DTT, 10% glycerol, 0.2 mM EDTA; 37 C, 20 min; 5% polyacrylamide gel.
For data set [1], the target named is T1, hnRNPC2 WT (UniProt P07910 1-306). The data set can be described thus: EMSA; 0-2000 nM protein, 10 pmol RNA; higher affinity than intron RNAs; EMSA: 20 mM Tris-HCl pH 8.0, 0.25 M NaCl, 1 mM DTT, 10% glycerol, 0.2 mM EDTA; 37 C, 20 min; 5% polyacrylamide gel. (In EMSA bound probe runs differently from free probe, usually more slowly.)
T1 sequence (P07910 whole entry): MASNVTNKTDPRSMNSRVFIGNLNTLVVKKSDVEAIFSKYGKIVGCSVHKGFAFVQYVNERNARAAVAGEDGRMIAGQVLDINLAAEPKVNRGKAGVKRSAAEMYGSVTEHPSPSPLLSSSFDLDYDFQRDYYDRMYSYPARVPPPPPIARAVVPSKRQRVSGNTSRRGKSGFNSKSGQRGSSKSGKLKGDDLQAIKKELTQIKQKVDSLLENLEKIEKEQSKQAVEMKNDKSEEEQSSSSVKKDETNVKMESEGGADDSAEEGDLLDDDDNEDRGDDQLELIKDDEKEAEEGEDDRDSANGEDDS
Data set [2] concerns the target T1, hnRNPC2 WT. Nature of the data set: EMSA; 0-10 uM protein, 10 pmol RNA; EMSA: 20 mM Tris-HCl pH 8.0, 0.25 M NaCl, 1 mM DTT, 10% glycerol, 0.2 mM EDTA; 37 C, 20 min; 5% polyacrylamide gel.

hnRNPC2 S115D, sequence (P07910 whole entry S115D): as the sequence (P07910 whole entry) above, with S115D counted along it

Regarding UUUUUUUUUUUUUUUUUUUUUUUUUUUUUUUUUUUUUUUUUUUUU (ssRNA) [poly-U 45 nt], the binding result with hnRNPC2 S115D and in the data set with hnRNPC2 WT [1] was “binds” each time.

As for ACCCCCUGCACACUUACCCAAUCCUUUUAG (ssRNA) [RPL10 intron 6 3' splice site RNA], the binding result with hnRNPC2 WT [2] is on record as “binds”.

With AUCUCUUGGCUAUCCCUCUUGCUUCUCCAG (ssRNA) [eIF5A intron 5 3' splice site RNA], the binding result in the data set with hnRNPC2 WT [2] is given as “binds”.
